Data reported in paper PMC9105653, “Zinc and Copper Ions Induce Aggregation of Human β-Crystallins” (Molecules, 2022).

Target: the molecule itself
Assay: dynamic light scattering; 50 µM protein in 10 mM Hepes pH 8.0, 100 mM NaCl (buffer B), without metal ions; apparent RH compared with the RH predicted (HullRad) from face-en-face dimer models

Protein | stoichiometry N
human βA1-crystallin (HβA1) (natural protein, UniProt P05813-2 1-198, looked up, human beta-crystallin A1, the shorter product of the gene CRYBA1 (made with betaA3 from the same gene by leaky ribosomal scanning); printed length 198 residues; source: E. coli BL21-RIL, purified (HisTrap, SUMO protease Ulp1 cleavage, second HisTrap, Q-Sepharose)) MAQTNPTPGSLGPWKITIYDQENFQGKRMEFTSSCPNVSERSFDNVRSLKVESGAWIGYEHTSFCGQQFILERGEYPRWDAWSGSNAYHIERLMSFRPICSANHKESKMTIFEKENFIGRQWEISDDYPSLQAMGWFNNEVGSMKIQSGAWVCYQYPGYRGYQYILECDHHGGDYKHWREWGSHAQTSQIQSIRRIQQ | 2
human βB2-crystallin (HβB2) (natural protein, human beta-crystallin B2; printed length 205 residues; source: E. coli BL21-RIL, purified (HisTrap, SUMO protease Ulp1 cleavage, second HisTrap, Q-Sepharose)) ASDHQTQAGKPQSLNPKIIIFEQENFQGHSHELNGPCPNLKETGVEKAGSVLVQAGPWVGYEQANCKGEQFVFEKGEYPRWDSWTSSRRTDSLSSLRPIKVDSQEHKIILYENPNFTGKKMEIIDDDVPSFHAHGYQEKVSSVRVQSGTWVGYQYPGYRGLQYLLEKGDYKDSSDFGAPHPQVQSVRRIRDMQWHQRGAFHPSN | 2
